{
  "source": "paper doi:10.1101/2019.12.24.886648",
  "target": "endogenous Sec22b (rat) (rat (endogenous in PC12 and in rat hippocampal neurons)) (UniProt Q4KM74)",
  "sequence (Q4KM74 whole entry)": "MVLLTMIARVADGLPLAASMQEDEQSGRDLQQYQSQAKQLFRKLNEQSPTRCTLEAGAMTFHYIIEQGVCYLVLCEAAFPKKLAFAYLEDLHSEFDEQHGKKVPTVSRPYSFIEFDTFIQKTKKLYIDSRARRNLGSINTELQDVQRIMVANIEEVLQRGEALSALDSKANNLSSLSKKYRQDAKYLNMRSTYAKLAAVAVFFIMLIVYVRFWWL",
  "test": "proximity ligation",
  "data": [
    {"substance": "endogenous E-Syt2 (rat hippocampal neurons) (natural protein)", "values": [
      {"measurement": "PLA signal normalized for the area, cell bodies", "value": 2.85, "unit": "%"},
      {"measurement": "PLA signal normalized for the area, growth cones", "value": 7.64, "unit": "%"},
      {"measurement": "PLA signal normalized for the area, neurites", "value": 5.53, "unit": "%"}
    ]}
  ]
}
